In US20240148828A1 (published 2024) one finds EC50 data, which are given here for one molecule.

In the assay the target is T1, CD19 expressed on cells (Daudi, Raji, K562-CD19) (human, UniProt P15391 20-556).
T1 chain: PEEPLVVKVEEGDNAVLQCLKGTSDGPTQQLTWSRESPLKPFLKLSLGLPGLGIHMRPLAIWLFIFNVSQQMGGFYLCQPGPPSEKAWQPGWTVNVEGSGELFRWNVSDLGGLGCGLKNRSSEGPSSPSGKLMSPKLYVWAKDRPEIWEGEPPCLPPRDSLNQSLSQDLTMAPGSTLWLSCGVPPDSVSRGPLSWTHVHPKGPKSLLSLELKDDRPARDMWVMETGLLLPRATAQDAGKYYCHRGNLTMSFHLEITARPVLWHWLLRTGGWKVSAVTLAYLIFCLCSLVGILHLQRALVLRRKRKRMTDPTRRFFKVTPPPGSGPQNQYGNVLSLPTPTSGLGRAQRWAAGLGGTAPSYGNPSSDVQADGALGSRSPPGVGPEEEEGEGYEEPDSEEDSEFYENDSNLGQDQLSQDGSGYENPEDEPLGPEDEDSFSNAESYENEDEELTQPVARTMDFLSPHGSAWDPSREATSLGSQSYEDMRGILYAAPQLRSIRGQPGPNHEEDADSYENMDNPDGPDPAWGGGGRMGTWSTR
Nature of the assay: flow cytometry cell binding. For orientation: Flow cytometry measures light scatter and fluorescence of single cells or particles in a stream.

B1: BTN2A1/3A1-Fc-CD19scFv heterodimeric protein (Fc fusion)
chain 1: QFIVVGPTDPILATVGENTTLRCHLSPEKNAEDMEVRWFRSQFSPAVFVYKGGRERTEEQMEEYRGRTTFVSKDISRGSVALVIHNITAQENGTYRCYFQEGRSYDEAILHLVVAGLGSKPLISMRGHEDGGIRLECISRGWYPKPLTVWRDPYGGVAPALKEVSMPDADGLFMVTTAVIIRDKSVRNMSCSINNTLLGQKKESVIFIPESFMPSVSPCAGSGSRKGGKRGSKYGPPCPPCPAPEFLGGPSVFLFPPKPKDQLMISRTPEVTCVVVDVSQEDPEVQFNWYVDGVEVHNAKTKPREEQFNSTYRVVSVLTVLHQDWLSGKEYKCKVSSKGLPSSIEKTISNATGQPREPQVYTLPPSQEEMTKNQVSLTCLVKGFYPSDIAVEWESNGQPENNYKTTPPVLDSDGSFFLYSRLTVDKSRWQEGNVFSCSVLHEALHNHYTQKSLSLSLGKDEGGEDGSDIQMTQTTSSLSASLGDRVTISCRASQDISKYLNWYQQKPDGTVKLLIYHTSRLHSGVPSRFSGSGSGTDYSLTISNLEQEDIATYFCQQGNTLPYTFGGGTKLEITGGGSGGGSGGGSEVKLQESGPGLVAPSQSLSVTCTVSGVSLPDYGVSWIRQPPRKGLEWLGVIWGSETTYYNSALKSRLTIIKDNSKSQVFLKMNSLQTDDTAIYYCAKHYYYGGSYAMDYWGQGTSVTVSS
chain 2: not shown
As a reminder, the EC50 is the concentration at which the effect is half-maximal. In turn, B1 gave an EC50 of 5 nM.
